Like-named read-outs stand apart in the source and are kept apart here.
Experiments:
HLA-A*1101 (human) [1] = biological target: HLA-A*1101 (human)
HLA-A*1101 (Human) [2] = biological target: HLA-A*1101 (Human)
HLA-A*1101 (human) [3] = biological target: HLA-A*1101 (human); remark: listed apart in the source
HLA-A*1101 (human) [4] = test: competition with 125I-labeled probe peptide for purified HLA, gel filtration
HLA-A*0301 (human) [5] = test: as above
HLA-A*0301 (human) [6] = biological target: HLA-A*0301 (human)
HLA-A*6801 (human) [7] = biological target: HLA-A*6801 (human)
HLA-A*3101 (human) [8] = biological target: HLA-A*3101 (human)
HLA-A*3301 (human) [9] = biological target: HLA-A*3301 (human)
HLA-A*3101 (human) [10] = test: competition with 125I-labeled probe peptide for purified HLA, gel filtration
HLA-A*3301 (human) [11] = test: as above
HLA-A*6801 (human) [12] = test: as above

For “[…] (LSA position 1703, 10-mer) (peptide; other documents disagree on this pair)”, the binding affinity ratio (IC50 of standard peptide / IC50 of test peptide) (HLA-A*1101 (human) [1]) was 0.0002.

“[…] (LSA, position 1854, 9 amino acids) (peptide; other documents disagree on this pair)” was tested, and the binding affinity ratio (IC50 of standard peptide / IC50 of test peptide) (HLA-A*1101 (Human) [2]) was 0.034.

In the case of “[…] (Pf LSA 1854, 10-mer A03 supermotif peptide) (peptide; other documents disagree on this pair)”, the binding affinity ratio (IC50 of standard peptide / IC50 of test peptide) (HLA-A*1101 (human) [3]) is reported as 0.049.

“[…] (LSA, position 1825, 10 amino acids) (peptide; other documents disagree on this pair)” gave a binding affinity ratio (IC50 of standard peptide / IC50 of test peptide) (HLA-A*1101 (Human) [2]) of 0.0009.

With “[…] (P. falciparum LSA, position 1575, 9 amino acids) (peptide; other documents disagree on this pair)” the binding affinity ratio (relative to standard peptide) (HLA-A*1101 (human) [4]) was 0.0002 and the binding affinity ratio (relative to standard peptide) (HLA-A*0301 (human) [5]) was 0.0001.

With “[…] (LSA, position 1854, 10 amino acids) (peptide; other documents disagree on this pair)” the binding affinity ratio (IC50 of standard peptide / IC50 of test peptide) (HLA-A*1101 (Human) [2]) was 0.049.

Substance “[…] (LSA position 1574, 10-mer) (peptide; other documents disagree on this pair)” has a binding affinity ratio (IC50 of standard peptide / IC50 of test peptide) (HLA-A*1101 (human) [1]) of 0.0002.

“[…] (Pf LSA 61, 10-mer A03 supermotif peptide) (peptide; other documents disagree on this pair)” showed a binding affinity ratio (IC50 of standard peptide / IC50 of test peptide) (HLA-A*0301 (human) [6]) of 0.0004.

For “[…] (P. falciparum SSP2, position 31, 9 amino acids) (peptide; other documents disagree on this pair)”, the binding affinity ratio (relative to standard peptide) (HLA-A*1101 (human) [3]) was 0.0002 and the binding affinity ratio (relative to standard peptide) (HLA-A*0301 (human) [6]) was 0.0005.

Work on “[…] (P. falciparum EXP-1, position 80, 9 amino acids) (peptide; other documents disagree on this pair)” yielded a binding affinity ratio (IC50 of standard peptide / IC50 of test peptide) (HLA-A*0201 (Human)) of 0.021.

Substance “[…] (LSA position 1726, 10-mer) (peptide; other documents disagree on this pair)” has a binding affinity ratio (IC50 of standard peptide / IC50 of test peptide) (HLA-A*1101 (human) [1]) of 0.0002.

Work on “[…] (LSA position 1387, 10-mer) (peptide; other documents disagree on this pair)” yielded a binding affinity ratio (IC50 of standard peptide / IC50 of test peptide) (HLA-A*1101 (human) [1]) of 0.0002.

With “[…] (Pf LSA 1693, 9-mer A03 supermotif peptide) (peptide; other documents disagree on this pair)” the binding affinity ratio (IC50 of standard peptide / IC50 of test peptide) (HLA-A*6801 (human) [7]) was 0.0054.

Work on “[…] (Pf LSA 68, 9-mer A03 supermotif peptide) (peptide; other documents disagree on this pair)” yielded a binding affinity ratio (IC50 of standard peptide / IC50 of test peptide) (HLA-A*1101 (human) [3]) of 0.0038 and a binding affinity ratio (IC50 of standard peptide / IC50 of test peptide) (HLA-A*0301 (human) [6]) of 0.0028.

Work on “[…] (Pf LSA 1825, 10-mer A03 supermotif peptide) (peptide; other documents disagree on this pair)” yielded a binding affinity ratio (IC50 of standard peptide / IC50 of test peptide) (HLA-A*1101 (human) [3]) of 0.0009.

For “[…] (Pf LSA 1631, 10-mer A03 supermotif peptide) (peptide; other documents disagree on this pair)”, the binding affinity ratio (IC50 of standard peptide / IC50 of test peptide) (HLA-A*3101 (human) [8]) was 0.0086 and the binding affinity ratio (IC50 of standard peptide / IC50 of test peptide) (HLA-A*3301 (human) [9]) was 0.0011.

In the case of “[…] (LSA, position 1834, 10 amino acids) (peptide; other documents disagree on this pair)”, the binding affinity ratio (IC50 of standard peptide / IC50 of test peptide) (HLA-A*1101 (Human) [2]) is reported as 0.0007.

Work on “[…] (LSA position 41, 9-mer) (peptide; other documents disagree on this pair)” yielded a binding affinity ratio (IC50 of standard peptide / IC50 of test peptide) (HLA-A*1101 (human) [1]) of 0.003.

“[…] (LSA position 1591, 10-mer) (peptide; other documents disagree on this pair)” showed a binding affinity ratio (IC50 of standard peptide / IC50 of test peptide) (HLA-A*1101 (human) [1]) of 0.0002.

Work on “[…] (LSA position 49, 9-mer) (peptide; other documents disagree on this pair)” yielded a binding affinity ratio (IC50 of standard peptide / IC50 of test peptide) (HLA-A*1101 (human) [1]) of 0.037.

Work on “[…] (P. falciparum LSA, position 1713, 10 amino acids) (peptide; other documents disagree on this pair)” yielded a binding affinity ratio (relative to standard peptide) (HLA-A*3101 (human) [10]) of 0.0009, a binding affinity ratio (relative to standard peptide) (HLA-A*3301 (human) [11]) of 0.0055 and a binding affinity ratio (relative to standard peptide) (HLA-A*1101 (human) [4]) of 0.0002. The binding affinity ratio (relative to standard peptide) (HLA-A*6801 (human) [12]) was 0.0046.

For “[…] (LSA, position 1704, 9 amino acids) (peptide; other documents disagree on this pair)”, the binding affinity ratio (IC50 of standard peptide / IC50 of test peptide) (HLA-A*1101 (Human) [2]) was 0.0007.

“[…] (Pf LSA 16, 9-mer A03 supermotif peptide) (peptide; other documents disagree on this pair)” was tested, and the binding affinity ratio (IC50 of standard peptide / IC50 of test peptide) (HLA-A*1101 (human) [3]) was 0.01 and the binding affinity ratio (IC50 of standard peptide / IC50 of test peptide) (HLA-A*0301 (human) [6]) was 0.026.

“[…] (LSA position 40, 10-mer) (peptide; other documents disagree on this pair)” was tested, and the binding affinity ratio (IC50 of standard peptide / IC50 of test peptide) (HLA-A*1101 (human) [1]) was 0.0002.

For “[…] (Pf LSA 1854, 9-mer A03 supermotif peptide) (peptide; other documents disagree on this pair)”, the binding affinity ratio (IC50 of standard peptide / IC50 of test peptide) (HLA-A*1101 (human) [3]) was 0.034.

“[…] (LSA position 1855, 10-mer) (peptide; other documents disagree on this pair)” showed a binding affinity ratio (IC50 of standard peptide / IC50 of test peptide) (HLA-A*1101 (human) [1]) of 0.0045.

With “[…] (P. falciparum LSA, position 1626, 10 amino acids) (peptide; other documents disagree on this pair)” the binding affinity ratio (relative to standard peptide) (HLA-A*1101 (human) [4]) was 0.0002 and the binding affinity ratio (relative to standard peptide) (HLA-A*0301 (human) [5]) was 0.0001.

“[…] (P. falciparum LSA, position 1676, 9-mer) (peptide; other documents disagree on this pair)” was tested, and the binding affinity ratio (IC50 of standard peptide / IC50 of test peptide) (HLA-A*1101 (human) [1]) was 0.0013.

Work on “[…] (LSA position 520, 10-mer) (peptide; other documents disagree on this pair)” yielded a binding affinity ratio (IC50 of standard peptide / IC50 of test peptide) (HLA-A*1101 (human) [1]) of 0.0002.

In the case of “[…] (EXP position 83, 10 amino acids) (peptide; other documents disagree on this pair)”, the binding affinity ratio (IC50 of standard peptide / IC50 of test peptide) (HLA-A*0201 (Human)) is reported as 0.038.

With “[…] (LSA position 1703, 9-mer) (peptide; other documents disagree on this pair)” the binding affinity ratio (IC50 of standard peptide / IC50 of test peptide) (HLA-A*1101 (human) [1]) was 0.0027.

“[…] (EXP position 84, 9 amino acids) (peptide; other documents disagree on this pair)” gave a binding affinity ratio (IC50 of standard peptide / IC50 of test peptide) (HLA-A*0201 (Human)) of 0.035.

“[…] (LSA position 49, 10-mer) (peptide; other documents disagree on this pair)” gave a binding affinity ratio (IC50 of standard peptide / IC50 of test peptide) (HLA-A*1101 (human) [1]) of 0.0018.

With “[…] (Pf LSA 1704, 9-mer A03 supermotif peptide) (peptide; other documents disagree on this pair)” the binding affinity ratio (IC50 of standard peptide / IC50 of test peptide) (HLA-A*3101 (human) [8]) was 0.0025, the binding affinity ratio (IC50 of standard peptide / IC50 of test peptide) (HLA-A*3301 (human) [9]) was 0.0043 and the binding affinity ratio (IC50 of standard peptide / IC50 of test peptide) (HLA-A*1101 (human) [3]) was 0.0007. It also gave a binding affinity ratio (IC50 of standard peptide / IC50 of test peptide) (HLA-A*6801 (human) [7]) of 0.32.

With “[…] (P. falciparum LSA, position 1660, 10 amino acids) (peptide; other documents disagree on this pair)” the binding affinity ratio (relative to standard peptide) (HLA-A*3101 (human) [10]) was 0.0009, the binding affinity ratio (relative to standard peptide) (HLA-A*3301 (human) [11]) was 0.0008 and the binding affinity ratio (relative to standard peptide) (HLA-A*1101 (human) [4]) was 0.0002. The binding affinity ratio (relative to standard peptide) (HLA-A*6801 (human) [12]) was 0.0029 and the binding affinity ratio (relative to standard peptide) (HLA-A*0301 (human) [5]) was 0.0001.

“[…] (LSA, position 68, 9 amino acids) (peptide; other documents disagree on this pair)” gave a binding affinity ratio (IC50 of standard peptide / IC50 of test peptide) (HLA-A*1101 (Human) [2]) of 0.0038.

Substance “[…] (Pf LSA position 1751, 9-mer) (peptide; other documents disagree on this pair)” has a binding affinity ratio (IC50 of standard peptide / IC50 of test peptide) (HLA-A*1101 (human) [1]) of 0.0018.

“[…] (P. falciparum EXP-1, position 79, 10 amino acids) (peptide; other documents disagree on this pair)” was tested, and the binding affinity ratio (IC50 of standard peptide / IC50 of test peptide) (HLA-A*0201 (Human)) was 0.0022.

“[…] (P. falciparum LSA, position 1388, 9 amino acids) (peptide; other documents disagree on this pair)” gave a binding affinity ratio (relative to standard peptide) (HLA-A*1101 (human) [4]) of 0.0002 and a binding affinity ratio (relative to standard peptide) (HLA-A*0301 (human) [5]) of 0.0001.

Substance “[…] (EXP position 84, 10 amino acids) (peptide; other documents disagree on this pair)” has a binding affinity ratio (IC50 of standard peptide / IC50 of test peptide) (HLA-A*0201 (Human)) of 0.0059.

“[…] (LSA position 1183, 10-mer) (peptide; other documents disagree on this pair)” was tested, and the binding affinity ratio (IC50 of standard peptide / IC50 of test peptide) (HLA-A*1101 (human) [1]) was 0.0002.

For “[…] (LSA position 1750, 10-mer) (peptide; other documents disagree on this pair)”, the binding affinity ratio (IC50 of standard peptide / IC50 of test peptide) (HLA-A*1101 (human) [1]) was 0.0002.

In the case of “[…] (Pf LSA 1834, 10-mer A03 supermotif peptide) (peptide; other documents disagree on this pair)”, the binding affinity ratio (IC50 of standard peptide / IC50 of test peptide) (HLA-A*3101 (human) [8]) is reported as 0.0042, the binding affinity ratio (IC50 of standard peptide / IC50 of test peptide) (HLA-A*3301 (human) [9]) is reported as 0.0009 and the binding affinity ratio (IC50 of standard peptide / IC50 of test peptide) (HLA-A*1101 (human) [3]) is reported as 0.0007. It also gave a binding affinity ratio (IC50 of standard peptide / IC50 of test peptide) (HLA-A*0301 (human) [6]) of 0.0081.

With “[…] (Pf LSA 1830, 10-mer A03 supermotif peptide) (peptide; other documents disagree on this pair)” the binding affinity ratio (IC50 of standard peptide / IC50 of test peptide) (HLA-A*0301 (human) [6]) was 0.0004.

With “[…] (P. falciparum LSA, position 1609, 9 amino acids) (peptide; other documents disagree on this pair)” the binding affinity ratio (relative to standard peptide) (HLA-A*1101 (human) [4]) was 0.0002 and the binding affinity ratio (relative to standard peptide) (HLA-A*0301 (human) [5]) was 0.0001.
